Tests used:
[1] = system: HeLa Kyoto; assay: solubility change mitosis vs G1/S (difference of NP-40 vs SDS log2 ratios) (log2 ratio difference); higher = more soluble in mitosis
[2] = system: HeLa Kyoto; assay: solubility in G1/S (NP-40 vs SDS abundance) (log2 ratio); higher = more soluble; details: cell cycle stage: G1/S
[3] = system: HeLa Kyoto; assay: thermal stability score vs G1/S (z-score of summed log2 fold changes over temperatures); higher = more thermally stable than in G1/S
[4] = system: HeLa Kyoto; assay: melting temperature (median over replicates), in situ; higher = more thermally stable
[5] = cell cycle stage: early G1 (4.5 h after nocodazole release)
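Throughout, for melting temperature (median over replicates), in situ: HeLa Kyoto cells synchronized by double thymidine or nocodazole block, proteins quantified by TMT10plex mass spectrometry, three independent biological replicates.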
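Throughout, for solubility change mitosis vs G1/S (difference of NP-40 vs SDS log2 ratios): synchronized HeLa Kyoto cells (double thymidine block for G1/S, nocodazole release for mitosis), protein amounts in NP-40 versus SDS lysates quantified by mass spectrometry, three biological replicates.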
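Throughout, for solubility in G1/S (NP-40 vs SDS abundance): HeLa Kyoto cells arrested at G1/S by double thymidine block, proteins quantified by TMT10plex mass spectrometry in mild NP-40 versus SDS extracts, three biological replicates.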
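Throughout, for thermal stability score vs G1/S (z-score of summed log2 fold changes over temperatures): synchronized HeLa Kyoto cells, proteins quantified by TMT10plex mass spectrometry, three biological replicates, mitosis taken 0.5 h after nocodazole release, G1/S directly after double thymidine block.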

MGKKSRVKTQKSGTGATATVSPKEILNLTSELLQKCSSPAPGPGKEWEEYVQIRTLVEKIRKKQKGLSVTFDGKREDYFPDLMKWASENGASVEGFEMVNFKEEGFGLRATRDIKAEELFLWVPRKLLMTVESAKNSVLGPLYSQDRILQAMGNIALAFHLLCERASPNSFWQPYIQTLPSEYDTPLYFEEDEVRYLQSTQAIHDVFSQYKNTARQYAYFYKVIQTHPHANKLPLKDSFTYEDYRWAVSSVMTRQNQIPTEDGSRVTLALIPLWDMCNHTNGLITTGYNLEDDRCECVALQDFRAGEQIYIFYGTRSNAEFVIHSGFFFDNNSHDRVKIKLGVSKSDRLYAMKAEVLARAGIPTSSVFALHFTEPPISAQLLAFLRVFCMTEEELKEHLLGDSAIDRIFTLGNSEFPVSWDNEVKLWTFLEDRASLLLKTYKTTIEEDKSVLKNHDLSVRAKMAIKLRLGEKEILEKAVKSAAVNREYYRQQMEEKAPLPKYEESNLGLLESSVGDSRLPLVLRNLEEEAGVQDALNIREAISKAKATENGLVNGENSIPNGTRSENESLNQESKRAVEDAKGSSSDSTAGVKE [SETD3]
solubility change mitosis (log2) [1]: -0.0646 | solubility in G1/S (log2) [2]: -0.0122 | thermal stability score [3, 5]: 1.13 | thermal stability score ([3]; cell cycle stage: mitosis): 1.44 | melting temperature ([4]; cell cycle stage: G1/S): 52.8 °C | melting temperature ([4]; cell cycle stage: mitosis): 53.5 °C

MSNEVETSATNGQPDQQAAPKAPSKKEKKKGPEKTDEYLLARFKGDGVKYKAKLIGIDDVPDARGDKMSQDSMMKLKGMAAAGRSQGQHKQRIWVNISLSGIKIIDEKTGVIEHEHPVNKISFIARDVTDNRAFGYVCGGEGQHQFFAIKTGQQAEPLVVDLKDLFQVIYNVKKKEEEKKKIEEASKAVENGSEALMILDDQTNKLKSGVDQMDLFGDMSTPPDLNSPTESKDILLVDLNSEIDTNQNSLRENPFLTNGITSCSLPRPTPQASFLPENAFSANLNFFPTPNPDPFRDDPFTQPDQSTPSSFDSLKSPDQKKENSSSSSTPLSNGPLNGDVDYFGQQFDQISNRTGKQEAQAGPWPFSSSQTQPAVRTQNGVSEREQNGFSVKSSPNPFVGSPPKGLSIQNGVKQDLESSVQSSPHDSIAIIPPPQSTKPGRGRRTAKSSANDLLASDIFAPPVSEPSGQASPTGQPTALQPNPLDLFKTSAPAPVGPLVGLGGVTVTLPQAGPWNTASLVFNQSPSMAPGAMMGGQPSGFSQPVIFGTSPAVSGWNQPSPFAASTPPPVPVVWGPSASVAPNAWSTTSPLGNPFQSNIFPAPAVSTQPPSMHSSLLVTPPQPPPRAGPPKDISSDAFTALDPLGDKEIKDVKEMFKDFQLRQPPAVPARKGEQTSSGTLSAFASYFNSKVGIPQENADHDDFDANQLLNKINEPPKPAPRQVSLPVTKSTDNAFENPFFKDSFGSSQASVASSQPVSSEMYRDPFGNPFA [DAB2]
solubility change mitosis (log2) [1]: -0.113 | solubility in G1/S (log2) [2]: 0.277 | thermal stability score [3, 5]: 2.68 | thermal stability score ([3]; cell cycle stage: mitosis): 5.04 | melting temperature ([4]; cell cycle stage: G1/S): 48.5 °C | melting temperature ([4]; cell cycle stage: mitosis): 50.3 °C

GALK1
solubility change mitosis (log2) [1]: -0.117 | solubility in G1/S (log2) [2]: 0.313 | thermal stability score [3, 5]: 3.18 | thermal stability score ([3]; cell cycle stage: mitosis): 1.65 | melting temperature ([4]; cell cycle stage: G1/S): 52.6 °C | melting temperature ([4]; cell cycle stage: mitosis): 52.7 °C

MLHLSAAPPAPPPEVTATARPCLCSVGRRGDGGKMAAAGALERSFVELSGAERERPRHFREFTVCSIGTANAVAGAVKYSESAGGFYYVESGKLFSVTRNRFIHWKTSGDTLELMEESLDINLLNNAIRLKFQNCSVLPGGVYVSETQNRVIILMLTNQTVHRLLLPHPSRMYRSELVVDSQMQSIFTDIGKVDFTDPCNYQLIPAVPGISPNSTASTAWLSSDGEALFALPCASGGIFVLKLPPYDIPGMVSVVELKQSSVMQRLLTGWMPTAIRGDQSPSDRPLSLAVHCVEHDAFIFALCQDHKLRMWSYKEQMCLMVADMLEYVPVKKDLRLTAGTGHKLRLAYSPTMGLYLGIYMHAPKRGQFCIFQLVSTESNRYSLDHISSLFTSQETLIDFALTSTDIWALWHDAENQTVVKYINFEHNVAGQWNPVFMQPLPEEEIVIRDDQDPREMYLQSLFTPGQFTNEALCKALQIFCRGTERNLDLSWSELKKEVTLAVENELQGSVTEYEFSQEEFRNLQQEFWCKFYACCLQYQEALSHPLALHLNPHTNMVCLLKKGYLSFLIPSSLVDHLYLLPYENLLTEDETTISDDVDIARDVICLIKCLRLIEESVTVDMSVIMEMSCYNLQSPEKAAEQILEDMITIDVENVMEDICSKLQEIRNPIHAIGLLIREMDYETEVEMEKGFNPAQPLNIRMNLTQLYGSNTAGYIVCRGVHKIASTRFLICRDLLILQQLLMRLGDAVIWGTGQLFQAQQDLLHRTAPLLLSYYLIKWGSECLATDVPLDTLESNLQHLSVLELTDSGALMANRFVSSPQTIVELFFQEVARKHIISHLFSQPKAPLSQTGLNWPEMITAITSYLLQLLWPSNPGCLFLECLMGNCQYVQLQDYIQLLHPWCQVNVGSCRFMLGRCYLVTGEGQKALECFCQAASEVGKEEFLDRLIRSEDGEIVSTPRLQYYDKVLRLLDVIGLPELVIQLATSAITEAGDDWKSQATLRTCIFKHHLDLGHNSQAYEALTQIPDSSRQLDCLRQLVVVLCERSQLQDLVEFPYVNLHNEVVGIIESRARAVDLMTHNYYELLYAFHIYRHNYRKAGTVMFEYGMRLGREVRTLRGLEKQGNCYLAALNCLRLIRPEYAWIVQPVSGAVYDRPGASPKRNHDGECTAAPTNRQIEILELEDLEKECSLARIRLTLAQHDPSAVAVAGSSSAEEMVTLLVQAGLFDTAISLCQTFKLPLTPVFEGLAFKCIKLQFGGEAAQAEAWAWLAANQLSSVITTKESSATDEAWRLLSTYLERYKVQNNLYHHCVINKLLSHGVPLPNWLINSYKKVDAAELLRLYLNYDLLEEAVDLVSEYVDAVLGKGHQYFGIEFPLSATAPMVWLPYSSIDQLLQALGENSANSHNIALSQKILDKLEDYQQKVDKATRDLLYRRTL [NUP160]
solubility change mitosis (log2) [1]: 0.135 | solubility in G1/S (log2) [2]: -0.58 | thermal stability score [3, 5]: -3.22 | thermal stability score ([3]; cell cycle stage: mitosis): -3.66 | melting temperature ([4]; cell cycle stage: G1/S): 52.1 °C | melting temperature ([4]; cell cycle stage: mitosis): 49.4 °C

MLPLSLLKTAQNHPMLVELKNGETYNGHLVSCDNWMNINLREVICTSRDGDKFWRMPECYIRGSTIKYLRIPDEIIDMVKEEVVAKGRGRGGLQQQKQQKGRGMGGAGRGVFGGRGRGGIPGTGRGQPEKKPGRQAGKQ [LSM4]
solubility change mitosis (log2) [1]: 0.187 | solubility in G1/S (log2) [2]: 0.0844 | thermal stability score [3, 5]: -3.84 | thermal stability score ([3]; cell cycle stage: mitosis): -4.06 | melting temperature ([4]; cell cycle stage: G1/S): 58.1 °C | melting temperature ([4]; cell cycle stage: mitosis): 54.6 °C

AHNAK2
solubility change mitosis (log2) [1]: -0.0597 | solubility in G1/S (log2) [2]: 0.073 | thermal stability score [3, 5]: 0.749 | thermal stability score ([3]; cell cycle stage: mitosis): 3.16 | melting temperature ([4]; cell cycle stage: G1/S): 53 °C | melting temperature ([4]; cell cycle stage: mitosis): 53.5 °C

MASKEMFEDTVEERVINEEYKIWKKNTPFLYDLVMTHALQWPSLTVQWLPEVTKPEGKDYALHWLVLGTHTSDEQNHLVVARVHIPNDDAQFDASHCDSDKGEFGGFGSVTGKIECEIKINHEGEVNRARYMPQNPHIIATKTPSSDVLVFDYTKHPAKPDPSGECNPDLRLRGHQKEGYGLSWNSNLSGHLLSASDDHTVCLWDINAGPKEGKIVDAKAIFTGHSAVVEDVAWHLLHESLFGSVADDQKLMIWDTRSNTTSKPSHLVDAHTAEVNCLSFNPYSEFILATGSADKTVALWDLRNLKLKLHTFESHKDEIFQVHWSPHNETILASSGTDRRLNVWDLSKIGEEQSAEDAEDGPPELLFIHGGHTAKISDFSWNPNEPWVICSVSEDNIMQIWQMAENIYNDEESDVTTSELEGQGS [RBBP7]
solubility change mitosis (log2) [1]: -0.157 | solubility in G1/S (log2) [2]: 0.0292 | thermal stability score [3, 5]: -0.845 | thermal stability score ([3]; cell cycle stage: mitosis): -1.83 | melting temperature ([4]; cell cycle stage: G1/S): 53 °C | melting temperature ([4]; cell cycle stage: mitosis): 53.3 °C

MAESDWDTVTVLRKKGPTAAQAKSKQAILAAQRRGEDVETSKKWAAGQNKQHSITKNTAKLDRETEELHHDRVTLEVGKVIQQGRQSKGLTQKDLATKINEKPQVIADYESGRAIPNNQVLGKIERAIGLKLRGKDIGKPIEKGPRAK [EDF1]
solubility change mitosis (log2) [1]: 0.78 | solubility in G1/S (log2) [2]: 0.119 | thermal stability score [3, 5]: -4.76 | thermal stability score ([3]; cell cycle stage: mitosis): -6.66 | melting temperature ([4]; cell cycle stage: G1/S): 55.2 °C | melting temperature ([4]; cell cycle stage: mitosis): 52.7 °C

MWNMLIVAMCLALLGCLQAQELQGHVSIILLGATGDLAKKYLWQGLFQLYLDEAGRGHSFSFHGAALTAPKQGQELMAKALESLSCPKDMAPSHCAEHKDQFLQLSQYRQLKTAEDYQALNKDIEAQLQHAGLREAGRIFYFSVPPFAYEDIARNINSSCRPGPGAWLRVVLEKPFGHDHFSAQQLATELGTFFQEEEMYRVDHYLGKQAVAQILPFRDQNRKALDGLWNRHHVERVEIIMKETVDAEGRTSFYEEYGVIRDVLQNHLTEVLTLVAMELPHNVSSAEAVLRHKLQVFQALRGLQRGSAVVGQYQSYSEQVRRELQKPDSFHSLTPTFAAVLVHIDNLRWEGVPFILMSGKALDERVGYARILFKNQACCVQSEKHWAAAQSQCLPRQLVFHIGHGDLGSPAVLVSRNLFRPSLPSSWKEMEGPPGLRLFGSPLSDYYAYSPVRERDAHSVLLSHIFHGRKNFFITTENLLASWNFWTPLLESLAHKAPRLYPGGAENGRLLDFEFSSGRLFFSQQQPEQLVPGPGPAPMPSDFQVLRAKYRESPLVSAWSEELISKLANDIEATAVRAVRRFGQFHLALSGGSSPVALFQQLATAHYGFPWAHTHLWLVDERCVPLSDPESNFQGLQAHLLQHVRIPYYNIHPMPVHLQQRLCAEEDQGAQIYAREISALVANSSFDLVLLGMGADGHTASLFPQSPTGLDGEQLVVLTTSPSQPHRRMSLSLPLINRAKKVAVLVMGRMKREITTLVSRVGHEPKKWPISGVLPHSGQLVWYMDYDAFLG [H6PD]
solubility change mitosis (log2) [1]: 0.0207 | solubility in G1/S (log2) [2]: 0.122 | thermal stability score [3, 5]: 1.01 | thermal stability score ([3]; cell cycle stage: mitosis): 2.18 | melting temperature ([4]; cell cycle stage: G1/S): 53.3 °C | melting temperature ([4]; cell cycle stage: mitosis): 53.7 °C

Reference: the supplement of paper PMC5998384
